Assay results: paper PMC3795721, “Screening for Protein-DNA Interactions by Automatable DNA-Protein Interaction ELISA”

T1: AtTIFY1 (Arabidopsis thaliana, UniProt Q9LRH6 1-309)
T1 sequence: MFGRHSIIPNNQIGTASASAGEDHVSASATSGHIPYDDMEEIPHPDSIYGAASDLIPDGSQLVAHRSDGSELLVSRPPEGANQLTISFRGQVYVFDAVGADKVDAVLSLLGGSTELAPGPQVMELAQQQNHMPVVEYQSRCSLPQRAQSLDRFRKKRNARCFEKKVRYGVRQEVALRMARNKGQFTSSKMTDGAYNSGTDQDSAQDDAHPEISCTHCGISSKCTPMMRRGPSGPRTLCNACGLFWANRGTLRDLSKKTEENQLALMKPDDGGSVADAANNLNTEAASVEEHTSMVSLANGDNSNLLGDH


Target: T1, AtTIFY1
Assay: DPI-ELISA; DPI-ELISA, streptavidin 384-well plate, 1-2 pmol biotinylated dsDNA per well, crude native E. coli extract, anti-His detection; buffer as in Brand et al. [46],; high values mean tight binding
Details: tags: C-terminal His (pET-DEST42); label: 5' biotin on forward strand

| Binder | binding signal |
| --- | --- |
| 300 (dsDNA) DNA 1: AAAAAACTCGCGCTTGCATCTGTGCGAAAA DNA 2: TTTTCGCACAGATGCAAGCGCGAGTTTTTT | 1.45 relative normalized absorbance |
| 334 (dsDNA) DNA 1: AAAAAATTCCGGCTTGACGCTGCATAAAAA DNA 2: TTTTTATGCAGCGTCAAGCCGGAATTTTTT | 1.43 relative normalized absorbance |
| 130 (dsDNA) DNA 1: AAAAAACGCAACTCCGGATGTGGGGTAAAA DNA 2: TTTTACCCCACATCCGGAGTTGCGTTTTTT | 1.54 relative normalized absorbance |
| 238 (dsDNA) DNA 1: AAAAAATCGGGGATCCGGGCGGTTGCAAAA DNA 2: TTTTGCAACCGCCCGGATCCCCGATTTTTT | 1.69 relative normalized absorbance |
| 314 (dsDNA) DNA 1: AAAAAATTGGCACACATGATCTCGGGAAAA DNA 2: TTTTCCCGAGATCATGTGTGCCAATTTTTT | 1.5 relative normalized absorbance |
| 204 (dsDNA) DNA 1: AAAAAAGGAAGTACTGACGATCTGGAAAAA DNA 2: TTTTTCCAGATCGTCAGTACTTCCTTTTTT | 1.52 relative normalized absorbance |
| 15 (dsDNA) DNA 1: AAAAAAATCCGATCGATGCATATATAAAA DNA 2: TTTTATATATGCATCGATCGGATTTTTTT | 1.63 relative normalized absorbance |
| 290 (dsDNA) DNA 1: AAAAAATGTCTAGACTCGGACATTCGAAAA DNA 2: TTTTCGAATGTCCGAGTCTAGACATTTTTT | 1.52 relative normalized absorbance |
| 227 (dsDNA) DNA 1: AAAAAAGGCTCCGGCCCCCAATCGCAAAAA DNA 2: TTTTTGCGATTGGGGGCCGGAGCCTTTTTT | 1.44 relative normalized absorbance |
| 160 (dsDNA) DNA 1: AAAAAACGGTCGCGATCGTTAATGATAAAA DNA 2: TTTTATCATTAACGATCGCGACCGTTTTTT | 1.47 relative normalized absorbance |
| 305 (dsDNA) DNA 1: AAAAAACGCTTTCAGTTTTGATCTTAAAAA DNA 2: TTTTTAAGATCAAAACTGAAAGCGTTTTTT | 1.55 relative normalized absorbance |

Target: WRKY33 cDBD (Arabidopsis thaliana, UniProt Q8S8P5 345-449)
Sequence (Q8S8P5 other isoform, or with tags, fused parts or gaps): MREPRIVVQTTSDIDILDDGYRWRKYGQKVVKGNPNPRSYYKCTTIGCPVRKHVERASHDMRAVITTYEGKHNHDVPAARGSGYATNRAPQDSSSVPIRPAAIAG
Assay: as above
Details: tags: C-terminal His (pET-DEST42); label: 5' biotin on forward strand

| Binder | binding signal |
| --- | --- |
| 160 (dsDNA) DNA 1: AAAAAACGGTCGCGATCGTTAATGATAAAA DNA 2: TTTTATCATTAACGATCGCGACCGTTTTTT | 2.05 relative normalized absorbance |

Target: T1, AtTIFY1
Assay: DPI-ELISA; highest affinity; DPI-ELISA on streptavidin plates with biotinylated dsDNA (1 pmol in Figure S1, 2 pmol in Figure 1 legend) and crude E. coli extract; anti-His detection; buffer, pH and temperature not given (ref 46)
Details: protein: recombinant; tags: C-terminal His (pET-DEST42); label: 5' biotin on forward strand; blunt

| Binder | binding result |
| --- | --- |
| probe 38 version with palindromic TGATCA (dsDNA) DNA 1: AAAAAATTTATACTTGATCATGGCTTAAAA DNA 2: TTTTAAGCCATGATCAAGTATAAATTTTTT | binds |
